Source: patent US10487114

Tested on: T1, pT231-Pro tau peptide KVAVVR-(pT231)-(Pro)-PKSPS
T1 sequence: KVAVVRTPPKSPS

PP2A
dephosphorylation of pT231-tau peptide, read with the conformation-specific antibodies: Trans, but not cis, pT231-tau peptide was readily dephosphorylated by PP2A in a time-dependent manner
